# Source: the RNAGym collection of RNA variant scans (doi:10.7554/elife.90254)
# B1: OR4K15 (parent)
# chain: GUUAACGGUCAUAGGCCAUGGAAACUAGGAGCACCAUUUCGCUGCCAGUGAAGAAAUGAACAAAGAAAAUCUGGGCCAGGCAGGCAUCAAAAGAAAUAGUCUUGCGCUCAACCAGAAAGUCUGUAAUCAUUUUAAGGGUA
# Variants of: B1
# Assay: self-cleavage, relative activity (ratio to wild type); higher = more cleavage; in vitro, sequencing; the parent is a self-cleaving ribozyme
row,Variant,self-cleavage
1,GUUAACGGUCAUAGGCCAUGGACACUAGGAGCACCAUUUCGCUGCCAGUGAAGAAAUGAACAAAGAAAAUCUGGGCCAGGCAGGCAUCAAAAGAAAUAGUCUUGCGCUCAACCAGAGAGUCUGUAAUCAUUUUAAGGGUA [A23C A117G],2.19
2,GUUAAAGGUCAUAGGCCAUGGAAACUAGGAGCACCAUUUCGCUGCCAGUGAAGAAAUGAGCAAAGAAAAUCUGGGCCAGGCAGGCAUCAAAAGAAAUAGUCUUGCGCUCAACCAGAAAGUCUGUAAUCAUUUUAAGGGUA [C6A A60G],0.5
3,GUUAACGGUCAUAGGCCAUGGAAACUAGGAGCACCAUUUCGCUGCCAGUGAAGAAAUGAACAAAGAAAAUCUGGGCCAGGCAGGCUUCAAAAGAAAUAGUCUUGCGCUCAACCAGAAAGUCUGUAAUCAUUUUAUGGGUA [A86U A135U],2.32
4,GUUAACGGUCAUAGGCCAUGGAAACAAGGAGCACCAUUUCGCUGCCAGUGAAGAAAUGAACAAAGAAAAUCUGGGCCUGGCAGGCAUCAAAAGAAAUAGUCUUGCGCUCAACCAGAAAGUCUGUAAUCAUUUUAAGGGUA [U26A A78U],0.43
5,GUUAACGGUCAUAGGCCAUGGAAACUAGGAGCACCAUUUCGCUGCCAGUGAAGAAAUGAACAAAGAAAAUCUGGUCCAGGCAGGCAUCAAAAGAAAUAGUCUUGCGCUCAACCAGAAAGUCUGUAAUCAUUUUAGGGGUA [G75U A135G],0.16
6,GUUAACGGUCAUAGGCCAUGGAAACUAGGAGCACCAUUUCGCAGCCAGUGAAGAAAUGAACAAAGAAAAUCUGGGCCAGGCAGGCAUCAAAAGAAAUAGUCUUGCGCUCAACCAGAAAGUCUGUAAUCAUUUUGAGGGUA [U43A A134G],1.81
7,GUUAACGGUCAUAGGCCAUGGAAACUAGGAGCACCAUUUCGCUGCCAGUGAAGAAAAGAACAAAGAAAAUCUGGGCCAGGCAGGCACCAAAAGAAAUAGUCUUGCGCUCAACCAGAAAGUCUGUAAUCAUUUUAAGGGUA [U57A U87C],0.92
8,GUUAACGGUCAUAGGCCAAGGAAACUAGGAGCACCAUUUCGCUGCCAGUGAAGAAAUGAACAAAGAAAAUCAGGGCCAGGCAGGCAUCAAAAGAAAUAGUCUUGCGCUCAACCAGAAAGUCUGUAAUCAUUUUAAGGGUA [U19A U72A],0.21
9,GUUAACGGUCAUAGGCCAUGGAAACUAGGAGCACCAUUUCGCUGCCAGUGAAGAAAUGAACAAAGAAAAUCUGGGCCAGGCAGGCAUCAGAAGAAAUAGUCUUACGCUCAACCAGAAAGUCUGUAAUCAUUUUAAGGGUA [A90G G104A],0.02
10,GUUAACGGUCAUAGGCCAUGGAAACUAGGAGCACCGUUUCGCUGCCAGUGAGGAAAUGAACAAAGAAAAUCUGGGCCAGGCAGGCAUCAAAAGAAAUAGUCUUGCGCUCAACCAGAAAGUCUGUAAUCAUUUUAAGGGUA [A36G A52G],1.79
11,GUUAACGGUCAUAGGCCAUGGAAACUAGGAGCACCAUUUCGCUGCCAGUGAAGAAAUGAACAAAGAGAAUCUGGGCCGGGCAGGCAUCAAAAGAAAUAGUCUUGCGCUCAACCAGAAAGUCUGUAAUCAUUUUAAGGGUA [A67G A78G],0.21
12,GUCAACGGACAUAGGCCAUGGAAACUAGGAGCACCAUUUCGCUGCCAGUGAAGAAAUGAACAAAGAAAAUCUGGGCCAGGCAGGCAUCAAAAGAAAUAGUCUUGCGCUCAACCAGAAAGUCUGUAAUCAUUUUAAGGGUA [U3C U9A],0.85
13,GAUAACGGUCAUAGGCCAUGGAAACUAGGAGCACCAUUUCGCUGCCAGUGAAGAAAUGAACAAAGAAAAUCUGGGCCAGGCAGGCAUCAAAAGAAAUAGUCUUGCGCUCAACCAGAAAGUCUGUAAUCGUUUUAAGGGUA [U2A A129G],0.66
14,GUUAACGGACAUAGGCCAUGGAAACUAGGAGCACCAUUUCGCCGCCAGUGAAGAAAUGAACAAAGAAAAUCUGGGCCAGGCAGGCAUCAAAAGAAAUAGUCUUGCGCUCAACCAGAAAGUCUGUAAUCAUUUUAAGGGUA [U9A U43C],1.25
15,GUUAACGGUCAUAGGCCAUGGAAACUAGAAGCAUCAUUUCGCUGCCAGUGAAGAAAUGAACAAAGAAAAUCUGGGCCAGGCAGGCAUCAAAAGAAAUAGUCUUGCGCUCAACCAGAAAGUCUGUAAUCAUUUUAAGGGUA [G29A C34U],1.67
16,GUUAACGGUCAUGGGCCAUGGAAACUAGGUGCACCAUUUCGCUGCCAGUGAAGAAAUGAACAAAGAAAAUCUGGGCCAGGCAGGCAUCAAAAGAAAUAGUCUUGCGCUCAACCAGAAAGUCUGUAAUCAUUUUAAGGGUA [A13G A30U],1.14
17,GUUAACGGACAUAGGCCAUGGAAACUAGGAGCACCAUUUCGCUGCCAGUGAAGAAAUGAACAAAGAAAAUCUGGGCCAGGCAGGCAUCAAAAGAAAUAGUCUUGCGCUCAACCAGAAAGUCUGUAACCAUUUUAAGGGUA [U9A U127C],1.05
18,GUUAACGGUCACAGGCCAUGGAAACUAGGAGCACCAUUUCGCUGCCAGUGGAGAAAUGAACAAAGAAAAUCUGGGCCAGGCAGGCAUCAAAAGAAAUAGUCUUGCGCUCAACCAGAAAGUCUGUAAUCAUUUUAAGGGUA [U12C A51G],0.87
19,GUUAACGGUCAUAGGCCAUGGAAACUAGGAGCACCAUUUAGCUGCCAGUGAAGAAAUGAACAAAGAAGAUCUGGGCCAGGCAGGCAUCAAAAGAAAUAGUCUUGCGCUCAACCAGAAAGUCUGUAAUCAUUUUAAGGGUA [C40A A68G],1.61
20,GUUAACGGUCAUAGGCCAUGGAAACUAGGAGCUCCAUUUCGCUGCCAGUGAAGAAAUGAACAAAGAAAAUCUGGGCCAGGCAGGCAUCAAAAGAAAUAGUCCUGCGCUCAACCAGAAAGUCUGUAAUCAUUUUAAGGGUA [A33U U102C],2.32
21,GUUAACGGUCAUAGGCCAUGGAAACUAGGAGCACCAUUUCGCUGCCAGUGAAGAAAUGAACAAAGAAAAUCUGGGCCAGGCAGGCAUCAAUAGAAAAAGUCUUGCGCUCAACCAGAAAGUCUGUAAUCAUUUUAAGGGUA [A91U U97A],2.19

row,Variant,self-cleavage
1,GUUAACGGUCAUAGGCCAUGGAAACUAGGAGCACCAUUUCGCUGCCAGUGAAGAAAUGAACAAAGAAAAUCUGGGCCAGGCAGGCAUCAAAAGAAAUAGUCUUGCGCUCAACCAGAAAGUCUGUAAUCAUUAUAAGGGUA [U132A],1.53
2,GUUAACGGUCAUAGGCCAUGGAAACUAGGAGCACCAUUUCGCUGCCAGUGAAGAAAUGAACAAAGGAAAUCUGGGCCAGGCAAGCAUCAAAAGAAAUAGUCUUGCGCUCAACCAGAAAGUCUGUAAUCAUUUUAAGGGUA [A66G G83A],1.56
3,GUUAACGGUCAUAGGCCAUGGAAACUAGGAGCACCAUUUCGCUGCCAGUGAAGAAAUGAACAAAGAAAAUCUGGGCCAAGCAGGCAUCAAAAGAAAUAGUCUUGCGCUCAACCAGAAAGUCUGUAAUCAUUUUGAGGGUA [G79A A134G],0.09
4,GUUAACGGUCAUAGGCCAUGGAAACUAGGAGCACCAUUUCGCUGCCAGUGAAGAAAUAAACAAAGAAAAUCUGGGCCAGGCAGGCAUCAAAAGAAAUAGUCUUGCGCUCAACCAGAAAGUCUGUAAUCAUUUUAAGGGUG [G58A A140G],1.85
5,GUUAACGGUCAUAGGCCAUGGAAACUAGGAGCACCAUUUCGCUGCCAGUGAUGAAAUGAACAAAGAAAUUCUGGGCCAGGCAGGCAUCAAAAGAAAUAGUCUUGCGCUCAACCAGAAAGUCUGUAAUCAUUUUAAGGGUA [A52U A69U],1.98
6,GUUAACGGUCAUAGGCCAUGGAAACUAGGAGCACCAUUUCGCUGCCAGUGAAGAGAUGAACAAAGAAAAUCUGGGCCAGGCAGGCAUCAAAAGAAGUAGUCUUGCGCUCAACCAGAAAGUCUGUAAUCAUUUUAAGGGUA [A55G A96G],0.83
7,GUUAACGGUCAUAGGCCACGGAAACUAGGAGCACCAUUUCGCCGCCAGUGAAGAAAUGAACAAAGAAAAUCUGGGCCAGGCAGGCAUCAAAAGAAAUAGUCUUGCGCUCAACCAGAAAGUCUGUAAUCAUUUUAAGGGUA [U19C U43C],0.54
8,GUUAACGGUCAUAGGCCAUGGAAACUAGGAGCACCAUUUCGCUGCCAGUGAAGAAAUGAACAAAGAAAAUCUGGGCCAGGCAGGCAUCGAAAGAAAUAGUCUUGCGCUCAACCAGAAAGUCAGUAAUCAUUUUAAGGGUA [A89G U122A],1
9,GUUAACGGUCAUAGGCCAUGGAAACUAGGUGCACCAUUUCGCUGCCAGUGAAGAAAUGAACAAAGAAAAUCUGGGCCAGGCAGGCAUCAAAGGAAAUAGUCUUGCGCUCAACCAGAAAGUCUGUAAUCAUUUUAAGGGUA [A30U A92G],0.91
10,GUUAACGGUCAUAGGCCAUGGAAACUAGGAGCACCAUUACGCUGCCAGUGAAGAAAUGAACAAAGAAAAUCUGGGCCAGGCAGGCAUCAAAAGAAAUAGUCUUGCGCUCAACCAGAAAGUCUGUAAUCAUUUUAAGGAUA [U39A G138A],0.14
11,GUUAACGGUCAUAGGCCAUGGAAACUAGGAGCACCAUUUCGCUGCCAGUGAAGAUAUGAACAAAGAAAAUCUGGGCCAGGCAGGCAUCAAAAGAAAUAGUCUUGCGCUCACCCAGAAAGUCUGUAAUCAUUUUAAGGGUA [A55U A111C],0.06
12,GUUAACGGUCAUAGGCCAUGGAAACUAGGAGCACCAUUUCGCUGCCAGUGAAGAAAUGAACAAAGAAAAUCUGGGCCAGGCAGACAUCAAAAGAAAUAGUCUUGCGCUCAACCAGAAAGUCCGUAAUCAUUUUAAGGGUA [G84A U122C],2.09
13,GUUAACGGUCAUAGGCCAUGGAAACUAGGAGCACCAUUUCACUGCCAGUGAAGAAAUGAACAAAGAAAAUCUGGGCCAGGCAGGCAUCAAAAGAAGUAGUCUUGCGCUCAACCAGAAAGUCUGUAAUCAUUUUAAGGGUA [G41A A96G],1.7
14,GUUAACGGUCAUAGGCCAUGGUAACUAGGAGCACCAUUUCGCUGCCAGUGAAGAAAUGAACAAAGAAAAUCUGGGCCAGGCAGGCAUCAAAAGAAAUAGUCUUGCGCUCAACCAGAAAGUCAGUAAUCAUUUUAAGGGUA [A22U U122A],1.33
15,GUUAACGGUCAUAGGCCAUGGAGACUAGGAGCACCAUUUCGCUGCCAGUGAAGAAAUGAACAAAGAAAAUCUGGGCCUGGCAGGCAUCAAAAGAAAUAGUCUUGCGCUCAACCAGAAAGUCUGUAAUCAUUUUAAGGGUA [A23G A78U],0.36
16,GUUAAAGGCCAUAGGCCAUGGAAACUAGGAGCACCAUUUCGCUGCCAGUGAAGAAAUGAACAAAGAAAAUCUGGGCCAGGCAGGCAUCAAAAGAAAUAGUCUUGCGCUCAACCAGAAAGUCUGUAAUCAUUUUAAGGGUA [C6A U9C],1.47
17,GAUAACGGUCAUAGGCCAUGGAAACUAGGAGCACCAUUUCGCUGCCAGUGAAGAAAUGAACAAAGAAAAUCUGGGCCAGGCAGGCAUCAAAAGAAAUAGUCUUGCACUCAACCAGAAAGUCUGUAAUCAUUUUAAGGGUA [U2A G106A],0.06
18,GUUAACGGUCAUAGGCCAUGGAAACUAGGAGCACCAUUUCGCUGCCAGUGAAGAAAUGAACAAGGAAAAUCUGGGCCAGGCAGGCAUCAAAAGAAAUAGUCUUGCGCUCUACCAGAAAGUCUGUAAUCAUUUUAAGGGUA [A64G A110U],1.1
19,GUUAACGGUCAUAGGCCAUGGAAACUAGGUGCACCAUUUCGCUGCCAGUGAAGAAAUGAACAAAGAAAAUCUGGGCCAGGCAGGCAUCAAAAGAAACAGUCUUGCGCUCAACCAGAAAGUCUGUAAUCAUUUUAAGGGUA [A30U U97C],0.83
20,GUUAACGGUCAUAGGCCAUGGAAACUAGGAGCACCAUUUCGCUACCAGUGAAGAAAUGAACAAAGAAAAUCUGGGCCAGGCAGGCAUCGAAAGAAAUAGUCUUGCGCUCAACCAGAAAGUCUGUAAUCAUUUUAAGGGUA [G44A A89G],1.14
